# Changes are numbered by the printed parent chain.
# B1: GTF4491T4: T4 C-terminal truncation of GTF4491, SEQ ID NO: 132, strain SG1320 (protein)
# chain: INGKQYYVNSDGSVRKNFVFEQDGKSYYFDAETGALATKSQDEFSTEPIKATVDFSSGNQLYKNDDKSLDQLDTFITADAWYRPKSILKDGKTWTASTEADKRPLLMVWWPDKSTQVNYLNYMQNQGLGAGSFSTNSSQESLDQAAKAVQTKIEERIAREGNTNWLRTSIDQFIKTQPGWNSSTENSSYDHLQGGQLLFNNSKGDTGNRTSHANSDYRLLNRTPTNQTGTRKYFKDNSIGGLEFLLANDIDNSNPAVQAEQLNWLHFMMNIGSIMANDPTANFDGLRVDALDNVDADLLQIASDYFKAAYGVDKSEANAIKHLSYLEAWSANDPYYNKDTKGAQLPIDNALRNALTNLLMRDKNTRMQLGDMTAFINSSLNPRGANDKNGERMANYIFTRAHDTEAQTIIQRIIRDRINPNLFGYNFTRDEIKKAFEIYNEDIDKAHKTYASYNLPSVYALMLTNKDSVTRVYYGDLYREDGHYMAKKTPYFDAIDTLLRARIKYVAGGQDMEVKKVGNDGLLTSVRYGKGANNRTDLGTSETRTQGMGVIMTNNYDFRLGSNETVTMNMGRAHRNQLYRPLLLTTKDGIATYLNDSDVPKNLLKRTDWNGNLTFNANDVFGVENVQVSGYLGVWVPYGAKANQDARTQPSNRANSDGQVYKSSAALDSQVMYEAFSNFQAFADDQPELYMNRVLAKNTDLLKAWGITSVGLPPQYVSSKDGTFLDSIIDNGYAFDDRYDMALSQNNKYGSLEDLLNVLRALHKDGIQAIADWVPDQIYNLPGKEVVNATRVNGYGYHQQGYQIVDQAYVANTRTDGTDYQGKYGGAFLDELKAKYPSIFNRVQISNGKQLPTNEKITKWSAKYFNGTNILGRGINFVLRDDKTNQYFNTSANSQLLPTPLRDTGAITSTQVFQRRGQDVYFLRDNQTVKNEFVQDGNGNWYYFGGDGKMTKGAQNINSKDYYFFDNGVQLRNALRRASNGYTYYYGLDGAMVKNAFVDFDDKHK
# modifications: T4 C-terminal truncation of GTF4491
# B2: GTF4491T5: T5 C-terminal truncation of GTF4491, SEQ ID NO: 122, strain SG1321 (protein)
# chain: INGKQYYVNSDGSVRKNFVFEQDGKSYYFDAETGALATKSQDEFSTEPIKATVDFSSGNQLYKNDDKSLDQLDTFITADAWYRPKSILKDGKTWTASTEADKRPLLMVWWPDKSTQVNYLNYMQNQGLGAGSFSTNSSQESLDQAAKAVQTKIEERIAREGNTNWLRTSIDQFIKTQPGWNSSTENSSYDHLQGGQLLFNNSKGDTGNRTSHANSDYRLLNRTPTNQTGTRKYFKDNSIGGLEFLLANDIDNSNPAVQAEQLNWLHFMMNIGSIMANDPTANFDGLRVDALDNVDADLLQIASDYFKAAYGVDKSEANAIKHLSYLEAWSANDPYYNKDTKGAQLPIDNALRNALTNLLMRDKNTRMQLGDMTAFINSSLNPRGANDKNGERMANYIFTRAHDTEAQTIIQRIIRDRINPNLFGYNFTRDEIKKAFEIYNEDIDKAHKTYASYNLPSVYALMLTNKDSVTRVYYGDLYREDGHYMAKKTPYFDAIDTLLRARIKYVAGGQDMEVKKVGNDGLLTSVRYGKGANNRTDLGTSETRTQGMGVIMTNNYDFRLGSNETVTMNMGRAHRNQLYRPLLLTTKDGIATYLNDSDVPKNLLKRTDWNGNLTFNANDVFGVENVQVSGYLGVWVPYGAKANQDARTQPSNRANSDGQVYKSSAALDSQVMYEAFSNFQAFADDQPELYMNRVLAKNTDLLKAWGITSVGLPPQYVSSKDGTFLDSIIDNGYAFDDRYDMALSQNNKYGSLEDLLNVLRALHKDGIQAIADWVPDQIYNLPGKEVVNATRVNGYGYHQQGYQIVDQAYVANTRTDGTDYQGKYGGAFLDELKAKYPSIFNRVQISNGKQLPTNEKITKWSAKYFNGTNILGRGINFVLRDDKTNQYFNTSANSQLLPTPLRDTGAITSTQVFQRRGQDVYFLRDNQTVKNEFVQDGNGNWYYFGGDGKMTKGAQNINSKDYYFFDNGVQLRNALRRASNGYTYYYGLDGAMVKNAFVDFDDKHKQ
# modifications: T5 C-terminal truncation of GTF4491
# B3: GTF4491NT: N terminal-only truncated GTF4491 from Streptococcus salivarius JIM8777, SEQ ID NO: 106, strain SG1292 (protein)
# chain: INGKQYYVNSDGSVRKNFVFEQDGKSYYFDAETGALATKSQDEFSTEPIKATVDFSSGNQLYKNDDKSLDQLDTFITADAWYRPKSILKDGKTWTASTEADKRPLLMVWWPDKSTQVNYLNYMQNQGLGAGSFSTNSSQESLDQAAKAVQTKIEERIAREGNTNWLRTSIDQFIKTQPGWNSSTENSSYDHLQGGQLLFNNSKGDTGNRTSHANSDYRLLNRTPTNQTGTRKYFKDNSIGGLEFLLANDIDNSNPAVQAEQLNWLHFMMNIGSIMANDPTANFDGLRVDALDNVDADLLQIASDYFKAAYGVDKSEANAIKHLSYLEAWSANDPYYNKDTKGAQLPIDNALRNALTNLLMRDKNTRMQLGDMTAFINSSLNPRGANDKNGERMANYIFTRAHDTEAQTIIQRIIRDRINPNLFGYNFTRDEIKKAFEIYNEDIDKAHKTYASYNLPSVYALMLTNKDSVTRVYYGDLYREDGHYMAKKTPYFDAIDTLLRARIKYVAGGQDMEVKKVGNDGLLTSVRYGKGANNRTDLGTSETRTQGMGVIMTNNYDFRLGSNETVTMNMGRAHRNQLYRPLLLTTKDGIATYLNDSDVPKNLLKRTDWNGNLTFNANDVFGVENVQVSGYLGVWVPYGAKANQDARTQPSNRANSDGQVYKSSAALDSQVMYEAFSNFQAFADDQPELYMNRVLAKNTDLLKAWGITSVGLPPQYVSSKDGTFLDSIIDNGYAFDDRYDMALSQNNKYGSLEDLLNVLRALHKDGIQAIADWVPDQIYNLPGKEVVNATRVNGYGYHQQGYQIVDQAYVANTRTDGTDYQGKYGGAFLDELKAKYPSIFNRVQISNGKQLPTNEKITKWSAKYFNGTNILGRGINFVLRDDKTNQYFNTSANSQLLPTPLRDTGAITSTQVFQRRGQDVYFLRDNQTVKNEFVQDGNGNWYYFGGDGKMTKGAQNINSKDYYFFDNGVQLRNALRRASNGYTYYYGLDGAMVKNAFVDFDDKHKQVRAFTTQGTMVVGNLHWSGHHFYFDRETGIQAKDRVVRTDDGKLHYYVAETGDMGRNVFATDSSTGKRYYFDADGNTVTGSRVIDGKTYYFNQDGSVGTAYSNRADSIIFENGKARYITPAGEIGRSIFVYNPATKAWNYFDKEGNRVTGRQYIDGHLYYFKEDGSQAKGEIIEENGIKYYYEPESGILASGRYLQVGDDQWMYFKQDGSLAIGQVRADHGYLKYFDKNGIQVKGKTVVEDGKTYYYDAHSGALVTSSFAEIAPNQWSYFNTDGQALKGKWTINGKEYYFDENGIQYKGKAIKVGSRYKYYDENDGQPVTNRFAQIEPNVWAYFGADCYAVTGEQVINGQHLYFDENGRQVKGAYVTVNGQRRYYDANTGEYVPGR
# modifications: Streptococcus salivarius JIM8777
# B4: GTF3808T5: T5 C-terminal truncation of GTF3808, SEQ ID NO: 124, strain SG1330 (protein)
# chain: B2 chain with A148M, I728T, Y797N, Q800V, V805I, F877Y, T928A, S959N, V969I
# modifications: T5 C-terminal truncation of GTF3808
# Experiment: GTF activity of strains (PAHBAH assay)
# Type: biochemical
# Details: enzyme expressed in B. subtilis host
# Method: GTF activity of the strains was analyzed by PAHBAH assay in three separate experiments. Due to minor variations between the expeirments, Table 2 lists the activity of the truncated enzymes in the B. subtilis host along with the experiment in which the activity was measured. Most of the T1, T2, and T6 truncations decreased the activity of the enzymes, whereas the T4 and T5 C-terminal truncations retained similar activity relative to the respective N terminal-only truncations (NT). […] To identify specific amino acid residues within the catalytic domain that may be involved in producing the soluble α-glucan fiber, we analyzed the crystal structures (PDB Identifiers: 3AIB, 3AIC, and 3HZ3) of the catalytic domains of three glucosyltransferases to identify residues within 8 Angstroms of the bound ligand. 57 residues met that criterion. A motif was generated based on the corresponding 57 amino acids in GTF0459 and each of the identified homologs. The motif was then used to generate a consensus sequence to capture the variability in the catalytic domains of GTF0459 and the identified homologs. The consensus sequence is provided as SEQ ID NO: 153.
Molecule,GTF activity of strains: Acitivity (Experiment Number 2) [U/mL],GTF activity of strains: Acitivity (Experiment Number 1) [U/mL],GTF activity of strains: Acitivity (Experiment Number 3) [U/mL]
B1,45.3,–,–
B2,50.6,–,–
B3,53.1,42.3,–
B4,–,–,36.2

# Reference: US20180049457A1, “ENZYMATIC SYNTHESIS OF SOLUBLE GLUCAN FIBER” (E I DU PONT DE NEMOURS AND COMPANY, priority 2014, published 2018)
